Measurements published in patent US20250282866A1 (VIGIL NEUROSCIENCE, published 2025).
Numbering of substitutions follows the chain as printed.

What was measured:
human TREM2 [1] = biological target: T1, human TREM2 (human, UniProt Q9NZC2 19-174, limits assumed); assay: 2nd screen 100 nM
T1 construct: also called triggering receptor expressed on myeloid cells 2
T1 sequence: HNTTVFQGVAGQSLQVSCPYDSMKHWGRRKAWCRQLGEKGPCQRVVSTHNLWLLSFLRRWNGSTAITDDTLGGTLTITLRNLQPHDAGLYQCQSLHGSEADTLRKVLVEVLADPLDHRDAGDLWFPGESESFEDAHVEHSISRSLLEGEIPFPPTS

human TREM2 [2] = biological target: T1, human TREM2; assay: 1st screen (110 nM or 10 nM)

B1: V6 (antibody, V domains shown)
VH: EVQLVQSGAEVKKPGESLKISCKGSGYSFTSMWIAWVRQMPGKGLEWMGIIYPGDSDTRYSPSFQGQVTISADKSISTAYLQWSSLKASDTAMYFCARQRTFYYDSSDYFDYWGQGTLVTVSS
VL: DIQMTQSPSSVSASVGDRVTITCRASQGISSWLAWYQQKPGKAPKLLIYAASSLQNGVPSRFSGSGSGTDFTLTISSLQPEDFATYFCQQADSFPRTFGQGTKLEIK
B1 was tested, and the “Binding Signal (fold over 6E7 Parental antibody)” value (human TREM2 [1]) was 0.56 fold and the “Binding Signal (fold over 6E7 Parental antibody)” value (human TREM2 [2]) was 0.2 fold.

B2: V23 (antibody, V domains shown)
VH: B1 VH with M32Y
VL: B1 VL with R96L
For B2, the “Binding Signal (fold over 6E7 Parental antibody)” value (human TREM2 [1]) was 0.4 fold and the “Binding Signal (fold over 6E7 Parental antibody)” value (human TREM2 [2]) was 0.4 fold.

B3: V67 (antibody, V domains shown)
VH: B1 VH with M32Y, I50M
VL: B1 VL
With B3 the “Binding Signal (fold over 6E7 Parental antibody)” value (human TREM2 [1]) was 0.84 fold and the “Binding Signal (fold over 6E7 Parental antibody)” value (human TREM2 [2]) was 0.8 fold.

B4: V8 (antibody, V domains shown)
VH: B1 VH with M32Y, R59K
VL: B1 VL
For B4, the “Binding Signal (fold over 6E7 Parental antibody)” value (human TREM2 [1]) was 0.77 fold and the “Binding Signal (fold over 6E7 Parental antibody)” value (human TREM2 [2]) was 0.28 fold.

B5: V22 (antibody, V domains shown)
VH: B1 VH with M32Y
VL: B1 VL with A50R
In the case of B5, the “Binding Signal (fold over 6E7 Parental antibody)” value (human TREM2 [1]) is reported as 0.71 fold and the “Binding Signal (fold over 6E7 Parental antibody)” value (human TREM2 [2]) is reported as 0.3 fold.

B6: V66 (antibody, V domains shown)
VH: B1 VH with Y27T, M32Y
VL: B1 VL
B6 was tested, and the “Binding Signal (fold over 6E7 Parental antibody)” value (human TREM2 [1]) was 0.74 fold and the “Binding Signal (fold over 6E7 Parental antibody)” value (human TREM2 [2]) was 0.25 fold.

B7: V44 (antibody, V domains shown)
VH: B1 VH with M32Y, G54S
VL: B1 VL
In the case of B7, the “Binding Signal (fold over 6E7 Parental antibody)” value (human TREM2 [1]) is reported as 0.52 fold and the “Binding Signal (fold over 6E7 Parental antibody)” value (human TREM2 [2]) is reported as 0.65 fold.

B8: V57 (antibody, V domains shown)
VH: B1 VH with M32Y
VL: B1 VL with R24A
For B8, the “Binding Signal (fold over 6E7 Parental antibody)” value (human TREM2 [1]) was 0.85 fold and the “Binding Signal (fold over 6E7 Parental antibody)” value (human TREM2 [2]) was 0.84 fold.

B9: V32 (antibody, V domains shown)
VH: B1 VH with M32Y, P62N
VL: B1 VL
For B9, the “Binding Signal (fold over 6E7 Parental antibody)” value (human TREM2 [1]) was 0.89 fold and the “Binding Signal (fold over 6E7 Parental antibody)” value (human TREM2 [2]) was 0.82 fold.

B10: V58 (antibody, V domains shown)
VH: B1 VH with M32Y
VL: B1 VL with A50K
For B10, the “Binding Signal (fold over 6E7 Parental antibody)” value (human TREM2 [1]) was 0.68 fold and the “Binding Signal (fold over 6E7 Parental antibody)” value (human TREM2 [2]) was 0.28 fold.

B11: V34 (antibody, V domains shown)
VH: B1 VH with M32Y
VL: B1 VL with N56D
For B11, the “Binding Signal (fold over 6E7 Parental antibody)” value (human TREM2 [1]) was 1.02 fold and the “Binding Signal (fold over 6E7 Parental antibody)” value (human TREM2 [2]) was 0.34 fold.

B12: V10 (antibody, V domains shown)
VH: B1 VH with M32Y
VL: B1 VL with A50S
B12 was tested, and the “Binding Signal (fold over 6E7 Parental antibody)” value (human TREM2 [1]) was 0.7 fold and the “Binding Signal (fold over 6E7 Parental antibody)” value (human TREM2 [2]) was 0.76 fold.

B13: V21 (antibody, V domains shown)
VH: B1 VH with M32Y, Y109F
VL: B1 VL
In the case of B13, the “Binding Signal (fold over 6E7 Parental antibody)” value (human TREM2 [1]) is reported as 0.68 fold and the “Binding Signal (fold over 6E7 Parental antibody)” value (human TREM2 [2]) is reported as 0.76 fold.

B14: V30 (antibody, V domains shown)
VH: B1 VH with Y27S, M32Y
VL: B1 VL
In the case of B14, the “Binding Signal (fold over 6E7 Parental antibody)” value (human TREM2 [1]) is reported as 0.72 fold and the “Binding Signal (fold over 6E7 Parental antibody)” value (human TREM2 [2]) is reported as 0.79 fold.

B15: V11 (antibody, V domains shown)
VH: B1 VH with M32Y
VL: B1 VL with D92A
For B15, the “Binding Signal (fold over 6E7 Parental antibody)” value (human TREM2 [1]) was 0.42 fold and the “Binding Signal (fold over 6E7 Parental antibody)” value (human TREM2 [2]) was 0.79 fold.

B16: V78 (antibody, V domains shown)
VH: B1 VH with S28R, M32Y
VL: B1 VL
B16 was tested, and the “Binding Signal (fold over 6E7 Parental antibody)” value (human TREM2 [1]) was 1.11 fold and the “Binding Signal (fold over 6E7 Parental antibody)” value (human TREM2 [2]) was 0.86 fold.

B17: V42 (antibody, V domains shown)
VH: B1 VH with M32A
VL: B1 VL
With B17 the “Binding Signal (fold over 6E7 Parental antibody)” value (human TREM2 [1]) was 0.41 fold and the “Binding Signal (fold over 6E7 Parental antibody)” value (human TREM2 [2]) was 0.45 fold.

B18: V68 (antibody, V domains shown)
VH: B1 VH with M32Y, Y103R
VL: B1 VL
With B18 the “Binding Signal (fold over 6E7 Parental antibody)” value (human TREM2 [1]) was 0.43 fold and the “Binding Signal (fold over 6E7 Parental antibody)” value (human TREM2 [2]) was 0.44 fold.

B19: V46 (antibody, V domains shown)
VH: B1 VH with M32Y
VL: B1 VL with S53T
B19 was tested, and the “Binding Signal (fold over 6E7 Parental antibody)” value (human TREM2 [1]) was 0.96 fold and the “Binding Signal (fold over 6E7 Parental antibody)” value (human TREM2 [2]) was 0.83 fold.

B20: V69 (antibody, V domains shown)
VH: B1 VH with M32Y
VL: B1 VL with W32Y
With B20 the “Binding Signal (fold over 6E7 Parental antibody)” value (human TREM2 [1]) was 0.4 fold and the “Binding Signal (fold over 6E7 Parental antibody)” value (human TREM2 [2]) was 0.41 fold.

B21: V54 (antibody, V domains shown)
VH: B1 VH with M32Q
VL: B1 VL
With B21 the “Binding Signal (fold over 6E7 Parental antibody)” value (human TREM2 [1]) was 0.54 fold and the “Binding Signal (fold over 6E7 Parental antibody)” value (human TREM2 [2]) was 0.55 fold.

B22: V9 (antibody, V domains shown)
VH: B1 VH with M32Y, T101G
VL: B1 VL
B22 was tested, and the “Binding Signal (fold over 6E7 Parental antibody)” value (human TREM2 [1]) was 0.54 fold and the “Binding Signal (fold over 6E7 Parental antibody)” value (human TREM2 [2]) was 0.67 fold.

B23: V71 (antibody, V domains shown)
VH: B1 VH with M32Y
VL: B1 VL with F94E
With B23 the “Binding Signal (fold over 6E7 Parental antibody)” value (human TREM2 [1]) was 0.48 fold and the “Binding Signal (fold over 6E7 Parental antibody)” value (human TREM2 [2]) was 0.37 fold.

B24: V56 (antibody, V domains shown)
VH: B1 VH with M32Y, S61Q
VL: B1 VL
For B24, the “Binding Signal (fold over 6E7 Parental antibody)” value (human TREM2 [1]) was 0.59 fold and the “Binding Signal (fold over 6E7 Parental antibody)” value (human TREM2 [2]) was 0.23 fold.

B25: V19 (antibody, V domains shown)
VH: B1 VH with M32S
VL: B1 VL
B25 was tested, and the “Binding Signal (fold over 6E7 Parental antibody)” value (human TREM2 [1]) was 0.48 fold and the “Binding Signal (fold over 6E7 Parental antibody)” value (human TREM2 [2]) was 0.59 fold.

B26: V33 (antibody, V domains shown)
VH: B1 VH with M32Y, Y104G
VL: B1 VL
For B26, the “Binding Signal (fold over 6E7 Parental antibody)” value (human TREM2 [1]) was 0.34 fold and the “Binding Signal (fold over 6E7 Parental antibody)” value (human TREM2 [2]) was 0.23 fold.

B27: V43 (antibody, V domains shown)
VH: B1 VH with M32Y, D57G
VL: B1 VL
B27 was tested, and the “Binding Signal (fold over 6E7 Parental antibody)” value (human TREM2 [1]) was 0.33 fold and the “Binding Signal (fold over 6E7 Parental antibody)” value (human TREM2 [2]) was 0.2 fold.

B28: V18 (antibody, V domains shown)
VH: B1 VH with M32Y, W33H
VL: B1 VL
With B28 the “Binding Signal (fold over 6E7 Parental antibody)” value (human TREM2 [1]) was 0.42 fold and the “Binding Signal (fold over 6E7 Parental antibody)” value (human TREM2 [2]) was 0.17 fold.

B29: V70 (antibody, V domains shown)
VH: B1 VH with M32Y
VL: B1 VL with S52G
For B29, the “Binding Signal (fold over 6E7 Parental antibody)” value (human TREM2 [1]) was 0.84 fold and the “Binding Signal (fold over 6E7 Parental antibody)” value (human TREM2 [2]) was 0.79 fold.

B30: V47 (antibody, V domains shown)
VH: B1 VH with M32Y
VL: B1 VL with R96M
With B30 the “Binding Signal (fold over 6E7 Parental antibody)” value (human TREM2 [1]) was 0.47 fold and the “Binding Signal (fold over 6E7 Parental antibody)” value (human TREM2 [2]) was 0.42 fold.

B31: V55 (antibody, V domains shown)
VH: B1 VH with M32Y, R59I, F64H
VL: B1 VL
For B31, the “Binding Signal (fold over 6E7 Parental antibody)” value (human TREM2 [1]) was 0.66 fold and the “Binding Signal (fold over 6E7 Parental antibody)” value (human TREM2 [2]) was 0.24 fold.

B32: V45 (antibody, V domains shown)
VH: B1 VH with M32Y
VL: B1 VL with W32F
For B32, the “Binding Signal (fold over 6E7 Parental antibody)” value (human TREM2 [1]) was 0.53 fold and the “Binding Signal (fold over 6E7 Parental antibody)” value (human TREM2 [2]) was 0.43 fold.

B33: V7 (antibody, V domains shown)
VH: B1 VH with M32E
VL: B1 VL
For B33, the “Binding Signal (fold over 6E7 Parental antibody)” value (human TREM2 [1]) was 0.32 fold and the “Binding Signal (fold over 6E7 Parental antibody)” value (human TREM2 [2]) was 0.11 fold.

B34: V20 (antibody, V domains shown)
VH: B1 VH with M32Y, I50R
VL: B1 VL
In the case of B34, the “Binding Signal (fold over 6E7 Parental antibody)” value (human TREM2 [1]) is reported as 0.52 fold and the “Binding Signal (fold over 6E7 Parental antibody)” value (human TREM2 [2]) is reported as 0.18 fold.

B35: V59 (antibody, V domains shown)
VH: B1 VH with M32Y
VL: B1 VL with Q89M
In the case of B35, the “Binding Signal (fold over 6E7 Parental antibody)” value (human TREM2 [1]) is reported as 0.6 fold and the “Binding Signal (fold over 6E7 Parental antibody)” value (human TREM2 [2]) is reported as 0.19 fold.

B36: V35 (antibody, V domains shown)
VH: B1 VH with M32Y
VL: B1 VL with D92Y
With B36 the “Binding Signal (fold over 6E7 Parental antibody)” value (human TREM2 [1]) was 0.29 fold and the “Binding Signal (fold over 6E7 Parental antibody)” value (human TREM2 [2]) was 0.21 fold.
